B1: HDV Ribozyme (parent)
chain: GGCCGGCAUGGUCCCAGCCUCCUCGCUGGCGCCGGCUGGGCAACAUUCCGAGGGGACCGUCCCCUCGGUAAUGGCGAAUGGGACCCA

In this data set the parent is B1. The data set can be described thus: self-cleavage, relative activity (ratio to wild type); higher = more cleavage; co-transcriptional.
Regarding GGCCGGCAGGGUCCCAGCCUCCUCGCUGGCGUCGGCUGGGCAACAUUCCGAGGGGACCGUCCCCUCGGUAAUGGCGAAUGGGACCCA [U9G C32U], the self-cleavage was found to be 0.623.
As to GGCCGGCAGGGUCCCAGCCUCCUCGCUGGCGACGGCUGGGCAACAUUCCGAGGGGACCGUCCCCUCGGUAAUGGCGAAUGGGACCCA [U9G C32A], the self-cleavage worked out at 0.277.
Next, GGCCGGCAGGGUCCCAGCCUCCUCGCUGGCGCCGGCUGGGCAACAUUCCGAGGGGACCGUGCCCUCGGUAAUGGCGAAUGGGACCCA [U9G C61G]: 1.02; GGCCGGCAGGGUCCCAGCCUCCUCGCUGGCGCCCGCUGGGCAACAUUCCGAGGGGACCGUCCCCUCGGUAAUGGCGAAUGGGACCCA [U9G G34C]: 0.175.
Next, GGCCGGCAGGGUCCCAGCCUCCUCGCUGGCGCCGGCUGGGCAACAUUCCGAGGGGACCGUCCCCUCGGUAAUGGCGAAUGGGACUCA [U9G C85U]: 1.14; GGCCGGCAGGGUCCCAGCCUCCUCGCUGGCGCCGGCUGGGCAACAUUCCGAGGGGACCGUCCCCUCGGUAAUGGCGAAUGGGACGCA [U9G C85G]: 0.895.
With GGCCGGCAGGGUCCCAGCCUCCUCGCUAGCGCCGGCUGGGCAACAUUCCGAGGGGACCGUCCCCUCGGUAAUGGCGAAUGGGACCCA [U9G G28A] the figure was 0.0573; with GGCCGGCAGGGUCCCAGCCUCCUCGCUCGCGCCGGCUGGGCAACAUUCCGAGGGGACCGUCCCCUCGGUAAUGGCGAAUGGGACCCA [U9G G28C], 0.222; with GGCCGGCAGGGUCCCAGCCUCCUCGCUGGUGCCGGCUGGGCAACAUUCCGAGGGGACCGUCCCCUCGGUAAUGGCGAAUGGGACCCA [U9G C30U], 0.853.
Turning to GGCCGGCAGGGUCCCAGCCUCCUCGCUGGCGCCGGCUGGGCAACAUUCUGAGGGGACCGUCCCCUCGGUAAUGGCGAAUGGGACCCA [U9G C49U], the self-cleavage worked out at 0.776.
Next, GGCCGGCAGGGUCCCAGCCUCCUCGCUGGCGCCGGCUGGGCAACAUUCAGAGGGGACCGUCCCCUCGGUAAUGGCGAAUGGGACCCA [U9G C49A]: 1.11; GGCCGGCAGGUUCCCAGCCUCCUCGCUGGCGCCGGCUGGGCAACAUUCCGAGGGGACCGUCCCCUCGGUAAUGGCGAAUGGGACCCA [U9G G11U]: 0.532; GGCCGGCAGGCUCCCAGCCUCCUCGCUGGCGCCGGCUGGGCAACAUUCCGAGGGGACCGUCCCCUCGGUAAUGGCGAAUGGGACCCA [U9G G11C]: 0.594.
With GGCCGGCAGGGUCCCAGCCUCCUCGCUGGCGCCGGCUGGGCAACAUUCCGAGGGGACCGUCCUCUCGGUAAUGGCGAAUGGGACCCA [U9G C63U], the self-cleavage came out at 1.07.
With GGCCGGCAGGGUCCCAGCCUCCUCGCUGGCGCCGGCUGGGCAACAUUCCGAGGGGACGGUCCCCUCGGUAAUGGCGAAUGGGACCCA [U9G C58G] the figure was 1.02; with GGCCGGCAGGGUCCCAGCCUCCUCGCUGGCGCCGGCUGGGCAACAUUCCGAGGGGACCGUCGCCUCGGUAAUGGCGAAUGGGACCCA [U9G C62G], 0.462; with GGCCGGCAGGGUCCCAGCCUCCUCGCUGGCGCCGGCUGGGCAACAUUCCGAGGGGACCGUCCCCUGGGUAAUGGCGAAUGGGACCCA [U9G C66G], 1.19.
Next, GGCCGGCAGGGUCCCAGCCUCCUCGCUGGCGCCGGCUGGGCAACAUUCCGAGGGGACCGUCCCCUUGGUAAUGGCGAAUGGGACCCA [U9G C66U]: 0.727.
With GGCCGGCAGGGUCCCAGCCUCCUCGCUGGCGCCGGCUGGGCAAUAUUCCGAGGGGACCGUCCCCUCGGUAAUGGCGAAUGGGACCCA [U9G C44U] the figure was 0.443; with GGCCGGCAGCGUCCCAGCCUCCUCGCUGGCGCCGGCUGGGCAACAUUCCGAGGGGACCGUCCCCUCGGUAAUGGCGAAUGGGACCCA [U9G G10C], 0.489; with GGCCGGCAGUGUCCCAGCCUCCUCGCUGGCGCCGGCUGGGCAACAUUCCGAGGGGACCGUCCCCUCGGUAAUGGCGAAUGGGACCCA [U9G G10U], 0.987.
With GGCCGGCAGGGUCCCAGCCUCCUCGCUGGCGCCGGCUGGGCAACAUUUCGAGGGGACCGUCCCCUCGGUAAUGGCGAAUGGGACCCA [U9G C48U], the self-cleavage was 1.05.
Next, GGCCGGCAGGGUCCCAGCCUCCUCGCUGGCGCCGGCUGGGCAACAUUCCGAGGGGACCGUCCCCUCGGUAAUGGCGAAUGGGAGCCA [U9G C84G]: 0.222; GGCCGGCAGGGUCCCAGCCUCCUCGCUGGCCCCGGCUGGGCAACAUUCCGAGGGGACCGUCCCCUCGGUAAUGGCGAAUGGGACCCA [U9G G31C]: 0.378; GGCCGGCAGGGUCCCAGCCUCCUCCCUGGCGCCGGCUGGGCAACAUUCCGAGGGGACCGUCCCCUCGGUAAUGGCGAAUGGGACCCA [U9G G25C]: 0.
Regarding GGCCGGCAGGGUCCCAGCCUCCUCGCUGGCGCCGGCUGGGCAACAUUCCGAGGGGACCGUCCCCUCGGUAAUGGUGAAUGGGACCCA [U9G C75U], the self-cleavage came out at 0.222.
Next, GGCCGGCAGGGUCCCAGCCUCCUCGCUGGCGCCGGCUGGGCAACAUUCCGAGGGGACCGUCCCGUCGGUAAUGGCGAAUGGGACCCA [U9G C64G]: 0.831; GGCCGGCAGGGUCCCAGCCUCCUCGCUGGCGCCGGCUGGGCAACAUUCCGAGGGGAACGUCCCCUCGGUAAUGGCGAAUGGGACCCA [U9G C57A]: 0.831; GGCCGGCAGGGUCCCAGCCUCCUCGCUGGCGCCGGCUGGGCAACAUUCCGAGGGGAGCGUCCCCUCGGUAAUGGCGAAUGGGACCCA [U9G C57G]: 1.19.
Consider GGCCGGCAGGGUCCCAGCCUCCUCGCUGGCGCCGGCUGGGCAACAUUCCGAGGGGACCGUCCCCUCGGUAAUGGCGAAUGGGACCAA [U9G C86A], for which the self-cleavage stood at 0.959.
For GGCCGGCAGGGUCCCAGCCUCCUCGCUGGCGCGGGCUGGGCAACAUUCCGAGGGGACCGUCCCCUCGGUAAUGGCGAAUGGGACCCA [U9G C33G], the self-cleavage stood at 0.104.
Next, GGCCGGCAGGGUCCCAGCCUCCUCGCUGGCGCAGGCUGGGCAACAUUCCGAGGGGACCGUCCCCUCGGUAAUGGCGAAUGGGACCCA [U9G C33A]: 0.293.

Values taken from the RNAGym collection of RNA variant scans (doi:10.7554/elife.80360).
